{
  "source": "paper PMC9016069",
  "about": "“Inosine triphosphate pyrophosphatase from Trypanosoma brucei cleanses cytosolic pools from deaminated nucleotides” (Scientific Reports, 2022)",
  "experiment_in_all_cases": "HPLC (MonoQ) product analysis, fit to substrate inhibition model",
  "key": {"[1]": {"target": "T1, TbITPA (Trypanosoma brucei, UniProt Q389X7)", "T1 construct": "gene Tb10.6k15.0290; homodimer 48 kDa by gel filtration", "T1 sequence (Q389X7 87-287)": "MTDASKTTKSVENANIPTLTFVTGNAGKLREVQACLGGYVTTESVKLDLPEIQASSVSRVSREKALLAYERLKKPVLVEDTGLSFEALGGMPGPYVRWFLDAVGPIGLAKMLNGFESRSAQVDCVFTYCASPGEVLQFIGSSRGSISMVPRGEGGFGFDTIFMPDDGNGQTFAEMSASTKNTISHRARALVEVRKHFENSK", "type": "biochemical", "conditions": "substrate inhibition constant; 5 mM MgCl2, 20 mM Tris-HCl pH 7.5, 0.1 mg/mL BSA, 1 mM DTT, 25 °C", "description": "HPLC (MonoQ) product analysis, fit to substrate inhibition model on TbITPA"}, "[2]": {"substrate": "O=P(O)(O)OP(=O)(O)OP(=O)(O)OC[C@H]1O[C@@H](n2cnc3c(O)ncnc32)[C@H](O)[C@@H]1O", "type": "biochemical, Trypanosoma brucei", "conditions": "5 mM MgCl2, 20 mM Tris-HCl pH 7.5, 0.1 mg/mL BSA, 1 mM DTT, 25 °C"}, "[3]": {"substrate": "O=c1[nH]cnc2c1ncn2[C@H]1C[C@H](O)[C@@H](COP(=O)(O)OP(=O)(O)OP(=O)(O)O)O1", "type": "biochemical, Trypanosoma brucei", "conditions": "5 mM MgCl2, 20 mM Tris-HCl pH 7.5, 0.1 mg/mL BSA, 1 mM DTT, 25 °C"}, "[4]": {"substrate": "NC(=O)c1ncn([C@@H]2O[C@H](CO[P@@](=O)(O)O[P@](=O)(O)OP(=O)(O)O)[C@@H](O)[C@H]2O)n1", "type": "biochemical, Trypanosoma brucei", "conditions": "5 mM MgCl2, 20 mM Tris-HCl pH 7.5, 0.1 mg/mL BSA, 1 mM DTT, 25 °C"}, "[5]": {"substrate": "O=c1[nH]c(=O)c2ncn([C@@H]3O[C@H](COP(=O)(O)OP(=O)(O)OP(=O)(O)O)[C@@H](O)[C@H]3O)c2[nH]1", "type": "biochemical, Trypanosoma brucei", "conditions": "5 mM MgCl2, 20 mM Tris-HCl pH 7.5, 0.1 mg/mL BSA, 1 mM DTT, 25 °C"}},
  "data": [
    {"molecule": "O=c1[nH]cnc2c1ncn2[C@H]1C[C@H](O)[C@@H](COP(=O)(O)OP(=O)(O)OP(=O)(O)O)O1", "note": "[dITP]", "values": [
      {"measurement": "Ki (μM)^a", "setting": "[1]", "result": "98 ± 42", "unit": "µM"}
    ]},
    {"molecule": "O=c1[nH]c(=O)c2ncn([C@@H]3O[C@H](COP(=O)(O)OP(=O)(O)OP(=O)(O)O)[C@@H](O)[C@H]3O)c2[nH]1", "note": "[XTP]", "values": [
      {"measurement": "Ki (μM)^a", "setting": "[1]", "result": "951 ± 220", "unit": "µM"}
    ]},
    {"molecule": "O=c1[nH]cnc2c1ncn2[C@@H]1O[C@H](COP(=O)(O)OP(=O)(O)OP(=O)(O)O)[C@@H](O)[C@H]1O", "note": "[ITP]", "values": [
      {"measurement": "Ki (μM)^a", "setting": "[1]", "result": "824 ± 275", "unit": "µM"}
    ]},
    {"molecule": "TbITPA (Trypanosoma brucei brucei TREU927) (protein, homodimer 48 kDa by gel filtration) MTDASKTTKSVENANIPTLTFVTGNAGKLREVQACLGGYVTTESVKLDLPEIQASSVSRVSREKALLAYERLKKPVLVEDTGLSFEALGGMPGPYVRWFLDAVGPIGLAKMLNGFESRSAQVDCVFTYCASPGEVLQFIGSSRGSISMVPRGEGGFGFDTIFMPDDGNGQTFAEMSASTKNTISHRARALVEVRKHFENSK", "values": [
      {"measurement": "Km", "setting": "[2]", "result": "17 ± 3", "unit": "µM"},
      {"measurement": "kcat", "setting": "[2]", "result": "59 ± 5", "unit": "s⁻¹"},
      {"measurement": "kcat/Km", "setting": "[2]", "result": "3.5e+06", "unit": "M⁻¹ s⁻¹"},
      {"measurement": "Km", "setting": "[3]", "result": "44 ± 18", "unit": "µM"},
      {"measurement": "kcat", "setting": "[3]", "result": "280 ± 74", "unit": "s⁻¹"},
      {"measurement": "kcat/Km", "setting": "[3]", "result": "6.4e+06", "unit": "M⁻¹ s⁻¹"},
      {"measurement": "Km", "setting": "[4]", "result": "75 ± 24", "unit": "µM"},
      {"measurement": "kcat", "setting": "[4]", "result": "100 ± 14", "unit": "s⁻¹"},
      {"measurement": "Km", "setting": "[5]", "result": "27 ± 4", "unit": "µM"},
      {"measurement": "kcat", "setting": "[5]", "result": "37 ± 2", "unit": "s⁻¹"},
      {"measurement": "kcat/Km", "setting": "[5]", "result": "1.4e+06", "unit": "M⁻¹ s⁻¹"}
    ]}
  ]
}
